Values of other authors in publication PMC10366146.

Molecular target: VEGFR2 (Homo sapiens) (UniProt P35968)
Chain of UniProt P35968 (P35968 20-1356): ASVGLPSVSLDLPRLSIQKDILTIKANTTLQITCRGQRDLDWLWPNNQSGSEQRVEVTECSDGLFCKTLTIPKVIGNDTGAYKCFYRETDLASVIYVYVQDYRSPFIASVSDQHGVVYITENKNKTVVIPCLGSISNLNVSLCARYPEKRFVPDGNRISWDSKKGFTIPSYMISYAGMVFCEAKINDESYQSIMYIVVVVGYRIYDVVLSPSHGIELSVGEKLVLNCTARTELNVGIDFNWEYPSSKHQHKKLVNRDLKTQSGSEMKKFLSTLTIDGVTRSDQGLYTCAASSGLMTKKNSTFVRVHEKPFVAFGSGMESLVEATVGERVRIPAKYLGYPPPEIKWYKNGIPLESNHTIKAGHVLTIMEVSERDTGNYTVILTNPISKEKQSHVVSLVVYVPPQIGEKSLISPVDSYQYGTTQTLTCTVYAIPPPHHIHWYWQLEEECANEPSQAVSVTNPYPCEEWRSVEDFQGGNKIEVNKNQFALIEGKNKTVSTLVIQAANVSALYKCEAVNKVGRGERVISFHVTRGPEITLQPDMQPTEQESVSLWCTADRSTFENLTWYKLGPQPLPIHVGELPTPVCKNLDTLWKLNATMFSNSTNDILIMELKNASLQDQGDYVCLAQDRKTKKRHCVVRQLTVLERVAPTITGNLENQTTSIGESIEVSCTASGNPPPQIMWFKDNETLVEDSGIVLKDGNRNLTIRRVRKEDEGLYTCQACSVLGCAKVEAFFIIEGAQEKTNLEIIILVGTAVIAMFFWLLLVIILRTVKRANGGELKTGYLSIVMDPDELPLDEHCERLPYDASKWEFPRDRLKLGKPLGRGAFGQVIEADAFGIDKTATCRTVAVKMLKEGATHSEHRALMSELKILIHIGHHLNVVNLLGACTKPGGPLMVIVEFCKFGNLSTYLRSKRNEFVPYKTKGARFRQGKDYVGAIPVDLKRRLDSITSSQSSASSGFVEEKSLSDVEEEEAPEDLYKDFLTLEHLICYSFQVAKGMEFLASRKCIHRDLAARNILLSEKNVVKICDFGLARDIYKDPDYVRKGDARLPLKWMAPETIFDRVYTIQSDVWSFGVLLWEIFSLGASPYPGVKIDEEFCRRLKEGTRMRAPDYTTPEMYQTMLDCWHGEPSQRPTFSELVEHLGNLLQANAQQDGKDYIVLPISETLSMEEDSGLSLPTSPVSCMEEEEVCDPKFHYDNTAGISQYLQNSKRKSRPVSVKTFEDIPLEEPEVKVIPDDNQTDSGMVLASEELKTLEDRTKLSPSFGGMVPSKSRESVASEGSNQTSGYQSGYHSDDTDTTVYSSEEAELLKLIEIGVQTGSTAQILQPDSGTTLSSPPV

VEGF121 VEGF121 (from UniProt P15692)
Kd: 5.5 nM
